{"source": "paper PMC7943762", "about": "“Bmp8a is an essential positive regulator of antiviral immunity in zebrafish”", "binders": {"B1": {"name": "P1 mutant probe (dsDNA)", "DNA 1": "AGACCAGCCCGGGGCAACCAA", "DNA 2": "TTGGTTGCCCCGGGCTGGTCT"}, "B2": {"name": "P2 mutant probe (dsDNA)", "DNA 1": "TTCAATGCACTAGGCCTTCTC", "DNA 2": "GAGAAGGCCTAGTGCATTGAA"}, "B3": {"name": "P1 GAS probe (dsDNA)", "DNA 1": "AGACCATTCCGGGAAAACCAA", "DNA 2": "TTGGTTTTCCCGGAATGGTCT"}, "B4": {"name": "P2 GAS probe (dsDNA)", "DNA 1": "TTCAATTTACTAGAACTTCTC", "DNA 2": "GAGAAGTTCTAGTAAATTGAA"}}, "key": {"rStat1b [1]": {"target": "T1, rStat1b (Danio rerio (zebrafish), UniProt B0S789 1-725)", "T1 sequence": "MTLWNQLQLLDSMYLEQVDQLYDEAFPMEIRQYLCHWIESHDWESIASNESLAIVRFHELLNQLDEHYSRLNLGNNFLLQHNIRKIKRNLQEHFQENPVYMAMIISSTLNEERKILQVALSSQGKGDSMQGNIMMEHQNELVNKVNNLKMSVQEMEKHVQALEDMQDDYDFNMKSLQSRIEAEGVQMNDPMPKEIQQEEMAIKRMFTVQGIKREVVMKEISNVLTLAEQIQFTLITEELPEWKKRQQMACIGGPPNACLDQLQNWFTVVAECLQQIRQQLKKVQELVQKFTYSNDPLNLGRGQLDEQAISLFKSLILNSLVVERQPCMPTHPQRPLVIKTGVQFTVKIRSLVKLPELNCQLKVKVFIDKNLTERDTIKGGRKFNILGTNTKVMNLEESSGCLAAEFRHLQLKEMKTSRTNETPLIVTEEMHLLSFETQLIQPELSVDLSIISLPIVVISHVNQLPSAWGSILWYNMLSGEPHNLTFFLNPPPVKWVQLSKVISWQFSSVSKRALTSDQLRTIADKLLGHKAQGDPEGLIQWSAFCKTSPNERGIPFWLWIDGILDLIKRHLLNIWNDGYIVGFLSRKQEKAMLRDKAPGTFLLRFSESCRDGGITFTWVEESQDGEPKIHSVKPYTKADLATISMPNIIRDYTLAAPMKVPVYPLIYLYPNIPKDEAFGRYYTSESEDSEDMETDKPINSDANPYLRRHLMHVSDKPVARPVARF", "assay": "competition; unlabeled competitor vs biotin P1 probe; little change; Beyotime GS009 EMSA/Gel-Shift binding buffer with poly(dI-dC), 25 C, 25 min preincubation then 30 min with 0.5 uM biotin probe (competitor stated as 0.5 uM), native 6% PAGE; salt and pH not stated", "details": "protein: recombinant; tags: His (pET-28a; Ni-NTA, anti-His); chain copies: 2; blunt"}, "rStat1a [2]": {"target": "T2, rStat1a (Danio rerio (zebrafish), UniProt O93598 1-749)", "T2 sequence": "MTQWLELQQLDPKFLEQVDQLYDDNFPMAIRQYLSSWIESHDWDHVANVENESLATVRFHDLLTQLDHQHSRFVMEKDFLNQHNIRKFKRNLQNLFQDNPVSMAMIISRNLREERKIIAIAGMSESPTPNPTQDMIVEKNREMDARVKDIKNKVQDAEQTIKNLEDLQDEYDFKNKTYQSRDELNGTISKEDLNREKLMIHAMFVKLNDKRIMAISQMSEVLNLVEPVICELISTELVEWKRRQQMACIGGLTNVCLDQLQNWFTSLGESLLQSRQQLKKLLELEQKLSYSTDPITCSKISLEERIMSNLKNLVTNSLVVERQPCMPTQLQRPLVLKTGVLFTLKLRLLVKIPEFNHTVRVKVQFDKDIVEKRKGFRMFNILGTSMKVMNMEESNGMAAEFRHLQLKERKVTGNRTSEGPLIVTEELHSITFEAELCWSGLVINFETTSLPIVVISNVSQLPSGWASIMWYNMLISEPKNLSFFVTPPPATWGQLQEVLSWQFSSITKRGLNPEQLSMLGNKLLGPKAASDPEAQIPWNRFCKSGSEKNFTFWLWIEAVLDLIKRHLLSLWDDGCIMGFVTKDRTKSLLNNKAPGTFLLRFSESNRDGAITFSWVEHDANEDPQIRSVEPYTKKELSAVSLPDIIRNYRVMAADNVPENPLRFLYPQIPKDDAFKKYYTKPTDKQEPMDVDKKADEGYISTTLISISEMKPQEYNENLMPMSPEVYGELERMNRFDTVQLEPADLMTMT", "assay": "competition; unlabeled competitor vs biotin P1 probe; little change; Beyotime GS009 EMSA/Gel-Shift binding buffer with poly(dI-dC), 25 C, 25 min preincubation then 30 min with 0.5 uM biotin probe (competitor stated as 0.5 uM), native 6% PAGE; salt and pH not stated", "details": "protein: recombinant; tags: His (pET-28a; Ni-NTA, anti-His); chain copies: 2; blunt"}, "rStat1b [3]": {"target": "T1, rStat1b", "assay": "competition; unlabeled competitor vs biotin P2 probe; little change; Beyotime GS009 EMSA/Gel-Shift binding buffer with poly(dI-dC), 25 C, 25 min preincubation then 30 min with 0.5 uM biotin probe (competitor stated as 0.5 uM), native 6% PAGE; salt and pH not stated", "details": "protein: recombinant; tags: His (pET-28a; Ni-NTA, anti-His); chain copies: 2; blunt"}, "rStat1a [4]": {"target": "T2, rStat1a", "assay": "competition; unlabeled competitor vs biotin P2 probe; little change; Beyotime GS009 EMSA/Gel-Shift binding buffer with poly(dI-dC), 25 C, 25 min preincubation then 30 min with 0.5 uM biotin probe (competitor stated as 0.5 uM), native 6% PAGE; salt and pH not stated", "details": "protein: recombinant; tags: His (pET-28a; Ni-NTA, anti-His); chain copies: 2; blunt"}, "rStat1b [5]": {"target": "T1, rStat1b", "assay": "EMSA; poly(dI-dC); anti-His supershift; unlabeled probe competes; Beyotime GS009 EMSA/Gel-Shift binding buffer with poly(dI-dC), 25 C, 25 min preincubation then 30 min with 0.5 uM biotin probe (competitor stated as 0.5 uM), native 6% PAGE; salt and pH not stated", "details": "protein: recombinant; tags: His (pET-28a; Ni-NTA, anti-His); chain copies: 2; label: biotin on both strands (5'); blunt"}, "rStat1a [6]": {"target": "T2, rStat1a", "assay": "EMSA; poly(dI-dC); anti-His supershift; unlabeled probe competes; Beyotime GS009 EMSA/Gel-Shift binding buffer with poly(dI-dC), 25 C, 25 min preincubation then 30 min with 0.5 uM biotin probe (competitor stated as 0.5 uM), native 6% PAGE; salt and pH not stated", "details": "protein: recombinant; tags: His (pET-28a; Ni-NTA, anti-His); chain copies: 2; label: biotin on both strands (5'); blunt"}}}
{"binder": "B1", "values": [{"measurement": "binding result", "setting": "rStat1b [1]", "result": "no binding"}, {"measurement": "binding result", "setting": "rStat1a [2]", "result": "no binding"}]}
{"binder": "B2", "values": [{"measurement": "binding result", "setting": "rStat1b [3]", "result": "no binding"}, {"measurement": "binding result", "setting": "rStat1a [4]", "result": "no binding"}]}
{"binder": "B3", "values": [{"measurement": "binding result", "setting": "rStat1b [5]", "result": "binds"}, {"measurement": "binding result", "setting": "rStat1a [6]", "result": "binds"}]}
{"binder": "B4", "values": [{"measurement": "binding result", "setting": "rStat1b [5]", "result": "binds"}, {"measurement": "binding result", "setting": "rStat1a [6]", "result": "binds"}]}
